Assay results reported in patent US20230382979A1 (ADAPTIVE BIOTECHNOLOGIES, published 2023).

How the values were obtained:
[1] = biological target: T1, Receptor-binding domain (RBD) of the SARS-CoV-2 spike protein, WA01/2020 strain (SARS-CoV-2, WA01/2020 strain, UniProt P0DTC2 319-541); test: ELISA, antibody at 0.1 ug/mL
[2] = biological target: T2, SARS-CoV-2 spike protein on live virus, strain USA-WA1/2020 (SARS-CoV-2, WA01/2020 strain, UniProt P0DTC2 14-1273); test: cell-based or functional assay
[3] = biological target: T1, Receptor-binding domain (RBD) of the …; test: dose-response ELISA on coated antigen
[4] = biological target: T2, SARS-CoV-2 spike protein on live virus, …; test: cell-based or functional assay; remark: listed apart in the source
[5] = biological target: T1, Receptor-binding domain (RBD) of the …; test: SPR (Biacore 8K), antigen immobilized, antibody injected
[6] = biological target: SARS-CoV-2 spike protein, B1.351 (beta variant), borne on lentiviral pseudovirus (SARS-CoV-2, B1.351); test: cell-based or functional assay
[7] = biological target: SARS-CoV-2 spike protein, B1.1.7 (alpha variant), borne on lentiviral pseudovirus (SARS-CoV-2, B1.1.7); test: cell-based or functional assay
[8] = biological target: T1, Receptor-binding domain (RBD) of the …; test: SPR (Biacore), footnote to the Kd of < 4.7* pM
[9] = biological target: SARS-CoV-2 spike protein on live virus, B1.351 (beta variant) (SARS-CoV-2, B1.351); test: cell-based or functional assay
[10] = biological target: T1, Receptor-binding domain (RBD) of the …; test: ELISA, antibody blocks RBD binding to human ACE2
[11] = biological target: T1, Receptor-binding domain (RBD) of the …; test: dose-response ELISA on WT RBD

| Binder | binding result [1] | Live Neut, WA1/2020 IC50 (pM) [2] | EC50 [3] | IC50, live virus micro-neutralization WA1/2020 [4] | Kd [5] | Pseudo Neut, B1.351 IC50 (pM) [6] | Pseudo Neut, B1.1.7 IC50 (pM) [7] | koff [8] | Live Neut, B1.351 IC50 (pM) [9] | IC50 [10] | EC50 (read off the curve) [11] |
| --- | --- | --- | --- | --- | --- | --- | --- | --- | --- | --- | --- |
| antibody 2866 (antibody, V domains shown) VH: QVQLVQSGAEVKKPGSSVKVSCKASGGTFSSYSISWVRQAPGQGLEWMGGLAPIFHTPNYAQKFQGRVTITADESTSTAYMELSSLRSEDTAVYYCARVAGAGWGVYGAFDYWGQGTLVTVSS VL: not shown | no binding (tested: 0.1 ug/mL) | 649 pM |  |  |  |  |  |  |  |  |  |
| antibody 1589 (antibody, V domains shown) VH: EVQLVESGGGLIQVGGSLRLSCAASGLTVTSNYMNWVRQGPGKGLEWVSLIYSGGTTYYADSVKGRFTISRDDSKNTLYLQMNSLRAEDTAVYYCARPIVGARSGMDVWGQGTAVTVSS VL: DIQMTQSPSSLSASVGDRVTITCQASQDINKYLNWYQQKPGKAPKLLIYDASNLETGVPSRFSGSGSGTDFTFTISSLQPEDLATYYCHQFDNLPGTFGGGTKVEIK |  | 43 pM | 36 pM | 66.7 pM | < 4.7 pM | 137 pM | 133 pM | < 1e-06 s⁻¹ | 167 pM | 520 pM |  |
| antibody 2793 (antibody, V domains shown) VH: QVQLVQSGAEVKKPGASVKVSCKVSGFTLPELSIHWVRQAPGKGLEWMGGFDPEDAKTIYAQKFQGRVTMTEDTSTDIAYMELNSLRSDDTAVYYCATGSPFGVVGNWLDPWGQGTLVTVSS VL: QSALTQPASVSGSPGQSITISCTGTSSDVGDFSYVSWYQQHPGKAPKLMIYEVTKRPSGVSNRFSGSKSGNTASLTISGLQTEDEADYYCTSYTSSRLVLFGGGTKLTVL | no binding (tested: 0.1 ug/mL) | 77 pM |  |  |  |  |  |  |  |  |  |
| antibody 2854 (antibody, V domains shown) VH: QVQLVQSGAEVKKPGSSVKVSCKASGGTFSSYAISWVRQAPGQGLEWMGGIIPIFHTANYAQKFQGRVTITADESTSTTYVELSSLRSEDTAMYYCATLPITIFGEEYSFDNWGQGTLVTVSS VL: DVVMTQSPLSLPVTLGQPASISCRSSQSLVHSDGNTYLSWFQQRPGQSPRRLIYKVSDRDSGVPDRFSGSGSGTDFTLKISRVEAEDVGIYYCMQGTHWPPLTFGGGTKVEIK | no binding (tested: 0.1 ug/mL) | 164 pM |  |  |  |  |  |  |  |  |  |
| antibody 2619 (antibody, V domains shown) VH: EVQLVESGGGLVQPGRSLRLSCAASGFTFDDYAMHWVRQAPGKGLEWVSGISWNSGSIGYADSVKGRFTLSRDNAKNSLFLQMDSLRAEDTALYYCAKDVSYRSGSYYRFWGGSGSWGQGTLVTVSS VL: DIQMTQSPSSLSASVGDRVTITCRASLSIRSYLNWYQQKPGKPPKLLIYAASSLQSGVPSRFSGSGSGTDFTLTISSLQPEDFATYYCQQSYSTPLTFGGGTKVEIK |  | 118 pM | 37 pM |  | 105 pM |  | ~7 pM |  |  | 479 pM | ~0.02 µg/mL |
| antibody 2729 (antibody, V domains shown) VH: QVTLKESGPVLVKPTETLTLTCTVSGFSLSNARMGVSWIRQPPGKALEWLAHIFSNDEKSYSTYLKSRLTISKDSSKSQVVLTMTIMDPVDTATYYCARTAGRYSSRWGHYYYYMDVWGKGTTVTVSS VL: NFMLTQPHSVSESPGKTVTISCTGSNGSIASNFMQWYQQRPGSAPTIVIYEDNQRPSGVPDRFSGSIDGSSNSASLTISGLKTEDEADYYCQSYDSSDSDLGVFGGGTKLTVL |  | 111 pM | 37 pM | 272 pM | 15 pM | 793 pM | 93 pM |  |  | ~660 pM | ~0.01 µg/mL |
